Assay results published in PMC12022309, “A facultative plasminogen-independent thrombolytic enzyme from Sipunculus nudus” (Nature Communications, 2025).

Legend:
[1] = target: T1, snFPITE-n1 (snFPITE) (Phascolopsis gouldii, UniProt Z9UHO8WHJ2); test: inhibition of fibrin lysis or plasminogen activation, SDS-PAGE; format: biochemical; conditions: 2.5 mM, 30 min pre-incubation; purified native snFPITE (called snFPITE-n1); enzyme also purified on Arg-Sepharose 4B
T1 construct: native, purified from S. nudus intestine / intestinal fluid by chromatography
T1 sequence (Z9UHO8WHJ2 1-239): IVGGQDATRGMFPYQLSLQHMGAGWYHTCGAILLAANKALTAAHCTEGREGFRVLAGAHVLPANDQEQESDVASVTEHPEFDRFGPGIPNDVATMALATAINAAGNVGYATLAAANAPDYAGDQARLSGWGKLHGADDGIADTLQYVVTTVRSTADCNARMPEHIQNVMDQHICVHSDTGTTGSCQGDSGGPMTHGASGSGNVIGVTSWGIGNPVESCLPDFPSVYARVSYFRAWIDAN

[2] = target: fibrinogen, biotin-labeled (UniProt P02671); test: BLI; GatorPrime (GatorPivot in the results), streptavidin (SA-XT) biosensors; biotin-labeled plasminogen or fibrinogen immobilised, snFPITE in solution; 30 °C, 1000 rpm; association 2–3 min, dissociation 2–5 min
Chain of fibrinogen, biotin-labeled (P02671 36-866, chain 1 of 3): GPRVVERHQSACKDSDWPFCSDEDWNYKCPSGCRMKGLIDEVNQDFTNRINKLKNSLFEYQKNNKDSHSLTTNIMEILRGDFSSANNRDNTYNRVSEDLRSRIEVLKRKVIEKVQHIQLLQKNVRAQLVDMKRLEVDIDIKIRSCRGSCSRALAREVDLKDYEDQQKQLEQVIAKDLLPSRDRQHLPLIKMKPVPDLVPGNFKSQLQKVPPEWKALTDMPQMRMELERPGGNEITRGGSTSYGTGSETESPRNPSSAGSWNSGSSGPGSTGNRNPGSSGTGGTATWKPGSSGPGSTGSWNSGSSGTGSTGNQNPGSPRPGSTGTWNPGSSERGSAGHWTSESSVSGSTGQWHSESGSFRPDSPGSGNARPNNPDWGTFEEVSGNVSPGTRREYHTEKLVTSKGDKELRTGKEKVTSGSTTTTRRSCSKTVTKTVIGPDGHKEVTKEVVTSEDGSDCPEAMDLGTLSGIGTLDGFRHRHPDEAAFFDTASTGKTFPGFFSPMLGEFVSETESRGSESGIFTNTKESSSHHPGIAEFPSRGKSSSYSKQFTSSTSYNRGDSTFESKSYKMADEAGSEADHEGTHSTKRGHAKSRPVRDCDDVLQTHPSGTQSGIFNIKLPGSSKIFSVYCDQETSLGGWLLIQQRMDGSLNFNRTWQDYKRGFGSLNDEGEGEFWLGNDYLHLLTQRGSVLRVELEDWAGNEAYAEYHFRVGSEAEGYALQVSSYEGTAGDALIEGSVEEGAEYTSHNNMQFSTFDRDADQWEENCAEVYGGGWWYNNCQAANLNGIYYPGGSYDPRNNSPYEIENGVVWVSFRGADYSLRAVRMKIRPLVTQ
Chain of fibrinogen, biotin-labeled (P02675 45-491, chain 2 of 3, further chain): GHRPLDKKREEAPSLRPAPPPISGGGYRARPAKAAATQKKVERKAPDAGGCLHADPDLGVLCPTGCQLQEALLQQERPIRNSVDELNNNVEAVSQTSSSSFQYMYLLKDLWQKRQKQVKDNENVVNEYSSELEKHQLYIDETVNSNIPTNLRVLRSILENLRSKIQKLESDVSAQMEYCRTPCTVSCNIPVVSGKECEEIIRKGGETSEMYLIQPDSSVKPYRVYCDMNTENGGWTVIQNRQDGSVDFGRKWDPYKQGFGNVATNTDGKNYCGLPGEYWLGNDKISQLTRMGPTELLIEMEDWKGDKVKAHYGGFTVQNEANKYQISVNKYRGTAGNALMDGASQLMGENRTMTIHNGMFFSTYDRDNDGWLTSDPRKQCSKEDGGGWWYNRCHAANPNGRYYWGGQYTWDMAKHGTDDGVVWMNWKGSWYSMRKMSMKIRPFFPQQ
Chain of fibrinogen, biotin-labeled (P02679 27-453, chain 3 of 3, further chain): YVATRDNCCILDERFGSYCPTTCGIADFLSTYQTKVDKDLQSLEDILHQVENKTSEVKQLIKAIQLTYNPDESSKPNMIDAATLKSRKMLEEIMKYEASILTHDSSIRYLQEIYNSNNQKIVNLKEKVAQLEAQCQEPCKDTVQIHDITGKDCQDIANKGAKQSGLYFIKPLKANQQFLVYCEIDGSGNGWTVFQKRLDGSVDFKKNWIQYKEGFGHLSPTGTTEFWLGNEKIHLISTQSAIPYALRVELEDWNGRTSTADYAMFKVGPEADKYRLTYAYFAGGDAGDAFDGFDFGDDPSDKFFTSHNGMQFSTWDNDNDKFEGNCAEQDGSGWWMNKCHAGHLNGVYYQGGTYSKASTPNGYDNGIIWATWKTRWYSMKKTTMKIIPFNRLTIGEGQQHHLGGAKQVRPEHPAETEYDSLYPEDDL

[3] = target: plasminogen, biotin-labeled (human); test: as above

Kd [2] [µM] | Kd [3] [µM] | Compound | inhibition of fibrin lysis or plasminogen activation, SDS-PAGE [1]
 |  | N=C(N)NCCC[C@H](N)C(=O)O [arginine] | Lys or Arg inhibited snFPITE-n1
0.000133 | 0.0547 | small facultative plasminogen-independent thrombolytic enzyme (snFPITE) from Sipunculus nudus | 
